Drawing on the supplement of paper PMC9732359, this text covers protein stability index for 25 sequences.

± gives the uncertainty stated by the source.

This data set in a line: protein stability index of a GFP-peptide fusion (yeast GPS) (PSI 1-4); higher = more stable; sorted into four equal gates, so the index is relative within each strain. The method, boiled down:
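Yeast carrying a pooled library were grown to mid-log phase in leucine-free medium. Each library plasmid expresses Cherry and has a tiled 17-residue yeast protein peptide fused downstream of GFP. Cells were sorted into four equal gates by GFP/Cherry ratio, and plasmids from each gate were PCR-amplified, Illumina-sequenced and assigned to strains by barcode. Summing, across gates, the read frequency times the gate number gave each peptide's protein stability index.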

Regarding SKAFKESSDFGAIILTK [SRP54], the protein stability index runs as follows: (doa10∆) 2.12 ± 0.073; (pdr5∆) 1.57 ± 0.056; (san1∆) 1.56 ± 0.17; (ubr1∆) 1.67 ± 0.06.
SKAPAEKKPAAKKTSTS [HTB1]: the protein stability index (doa10∆) was determined as 3.17 ± 0.13, the protein stability index (pdr5∆) was determined as 3.01 ± 0.069, the protein stability index (san1∆) was found to be 2.83 ± 0.08 and the protein stability index (ubr1∆) stood at 3.33 ± 0.11.
For the sequence SKDVSRLLSALGPRGVS [SRP21], the protein stability index reads like this: (doa10∆) 3.09 ± 0.14; (pdr5∆) 2.54 ± 0.28; (ubr1∆) 2.83 ± 0.084.
As for SKEKANFLETIASTEKP [SIR4], the protein stability index was 2.26 ± 0.069 (doa10∆), 2.28 ± 0.055 (pdr5∆), 2.04 ± 0.1 (san1∆) and 2.64 ± 0.058 (ubr1∆).
For SKEQIHGSIIILGMLSL [YCS4] the same measures were 2.45 ± 0.053, 2.32 ± 0.05, 2.72 ± 0.049 and 2.82 ± 0.045.
For SKIIVFPRNGKAPEAEQ [RPL13A] the same measures were 3.19 ± 0.12, 3.09 ± 0.12, 3.06 ± 0.062 and 2.98 ± 0.15.
On to SKILSQAPSELELQVAK [RPS7B], for which the protein stability index (doa10∆) was 2.96 ± 0.057, the protein stability index (pdr5∆) stood at 3.07 ± 0.047, the protein stability index (san1∆) was 2.95 ± 0.063 and the protein stability index (ubr1∆) was determined as 3 ± 0.051.
Take SKINELSYYVEETNVDI [SMC4]: the protein stability index (doa10∆) is 3.28 ± 0.17, the protein stability index (pdr5∆) was 2.98 ± 0.15 and the protein stability index (ubr1∆) was determined as 2.99 ± 0.15.
As to SKKGKPTVNKKPKNKKK [SRP72], the protein stability index was 2.73 ± 0.15 (doa10∆), 2.68 ± 0.11 (pdr5∆), 2.45 ± 0.12 (san1∆) and 2.9 ± 0.098 (ubr1∆).
For the sequence SKLNELKKELKLLAKEL [SMC2], the protein stability index was determined as 2.92 ± 0.11 (doa10∆), 2.9 ± 0.12 (pdr5∆) and 3.09 ± 0.15 (ubr1∆).
For SKNAERKWAARAASAKI [RPS8A], the protein stability index is 3.135 ± 0.03 (doa10∆), 3.212 ± 0.028 (pdr5∆), 3.173 ± 0.022 (san1∆) and 3.219 ± 0.026 (ubr1∆).
For SKNTAVSKVQKRKVLEL [SRP72], the protein stability index reads like this: (doa10∆) 2.66 ± 0.11; (pdr5∆) 2.1 ± 0.16.
As to SKQPNSAIRKCVRVQLI [RPS23A], the protein stability index by setting is: (doa10∆) 2.69 ± 0.078; (pdr5∆) 2.77 ± 0.064; (san1∆) 1.79 ± 0.096; (ubr1∆) 2.96 ± 0.045.
For SKRLPLRFPEHTSSGSV [BRR2], the protein stability index is, setting by setting: (doa10∆) 2.9 ± 0.096; (pdr5∆) 2.97 ± 0.083; (san1∆) 2.74 ± 0.14; (ubr1∆) 2.34 ± 0.065.
For SKRPQLGEIPNPMKKHK [SIR4] the same measures were 2.44 ± 0.075, 2.53 ± 0.059, 2.23 ± 0.089 and 2.69 ± 0.079.
For SKSAFSFGTANTNGTNA [YOR098C/NUP1], the protein stability index was 3 ± 0.088 (doa10∆), 3.08 ± 0.088 (pdr5∆), 2.77 ± 0.14 (san1∆) and 2.86 ± 0.067 (ubr1∆).
For SKVIIKFLQVMQKHGYI [RPS22A] the same measures were 1.95 ± 0.038, 1.84 ± 0.038, 1.76 ± 0.066 and 2 ± 0.039.
For SKVSKQQAKGAFQKVAA [RPL24B] the same measures were 2.45 ± 0.042, 2.97 ± 0.043, 2.78 ± 0.036 and 2.65 ± 0.036.
In the case of SLDAREANFDLINIDTS [RPC40], the protein stability index is, setting by setting: (doa10∆) 3.5 ± 0.078; (pdr5∆) 3.22 ± 0.066; (san1∆) 3.18 ± 0.058; (ubr1∆) 3.04 ± 0.071.
SLDLIKERRSLKPEVRK [RPL24A]: the protein stability index (ubr1∆) worked out at 3.32 ± 0.22.
Consider SLDNKTLDDLVTKWTNQ [YJL041W/NSP1], for which the protein stability index (doa10∆) came out at 3.08 ± 0.056, the protein stability index (pdr5∆) was found to be 3.07 ± 0.069, the protein stability index (san1∆) was 3.05 ± 0.062 and the protein stability index (ubr1∆) amounted to 3.17 ± 0.043.
The like results for SLEALIDLCHDFPHLTP [YCS4] were, in that order, 2.31 ± 0.042, 2.35 ± 0.036, 2.56 ± 0.049 and 2.25 ± 0.031.
The like results for SLEDPQVRKKQIETINF [YDL116W/NUP84] were, in that order, 1.72 ± 0.12, 1.82 ± 0.088, 2.19 ± 0.11 and 2.23 ± 0.19.
On to SLEEIIAEGQKKFATVP [RPP2B], for which the protein stability index worked out at 2.77 ± 0.061 (doa10∆), 2.89 ± 0.058 (pdr5∆), 2.93 ± 0.061 (san1∆) and 2.59 ± 0.04 (ubr1∆).
For SLGSSSTTASGTTATGT [YGR119C/NUP57], the protein stability index was determined as 3.08 ± 0.072 (doa10∆), 3.31 ± 0.076 (pdr5∆), 3.08 ± 0.067 (san1∆) and 3.18 ± 0.067 (ubr1∆).
